T1: His9-hMSR1 (Homo sapiens, UniProt P21757)
T1 construct: human MSR1 extracellular domain expressed with a N-terminal nonahistidine tag; purchased R&D Systems 2708-MS
T1 sequence (P21757 77-451 limits assumed): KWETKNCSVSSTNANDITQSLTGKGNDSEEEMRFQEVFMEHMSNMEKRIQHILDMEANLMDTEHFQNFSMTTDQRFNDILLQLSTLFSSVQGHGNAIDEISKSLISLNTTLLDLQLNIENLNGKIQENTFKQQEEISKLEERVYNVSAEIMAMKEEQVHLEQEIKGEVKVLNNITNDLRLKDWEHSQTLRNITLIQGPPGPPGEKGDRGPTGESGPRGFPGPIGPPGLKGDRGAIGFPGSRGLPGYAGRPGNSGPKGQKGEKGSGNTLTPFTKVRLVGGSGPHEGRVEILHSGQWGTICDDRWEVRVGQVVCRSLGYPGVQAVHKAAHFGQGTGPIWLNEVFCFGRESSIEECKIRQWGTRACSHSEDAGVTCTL

T2: Ac-LDL binding to His9-hMSR1 (Homo sapiens, UniProt P21757)
T2 construct: human MSR1 extracellular domain expressed with a N-terminal nonahistidine tag; purchased R&D Systems 2708-MS
T2 sequence (P21757 77-451 limits assumed): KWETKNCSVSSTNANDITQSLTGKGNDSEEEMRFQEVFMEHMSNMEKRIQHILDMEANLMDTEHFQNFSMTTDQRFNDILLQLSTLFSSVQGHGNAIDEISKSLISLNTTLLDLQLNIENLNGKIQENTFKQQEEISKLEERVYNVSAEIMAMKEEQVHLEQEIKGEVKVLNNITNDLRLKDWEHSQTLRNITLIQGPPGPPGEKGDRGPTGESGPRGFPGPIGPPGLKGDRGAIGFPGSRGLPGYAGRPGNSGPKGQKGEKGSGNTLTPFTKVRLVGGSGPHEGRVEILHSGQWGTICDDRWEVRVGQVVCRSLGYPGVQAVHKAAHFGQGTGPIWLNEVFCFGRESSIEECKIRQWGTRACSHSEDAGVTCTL

T3: Ox-LDL binding to His9-hMSR1 (Homo sapiens, UniProt P21757)
T3 construct: human MSR1 extracellular domain expressed with a N-terminal nonahistidine tag; purchased R&D Systems 2708-MS
T3 sequence (P21757 77-451 limits assumed): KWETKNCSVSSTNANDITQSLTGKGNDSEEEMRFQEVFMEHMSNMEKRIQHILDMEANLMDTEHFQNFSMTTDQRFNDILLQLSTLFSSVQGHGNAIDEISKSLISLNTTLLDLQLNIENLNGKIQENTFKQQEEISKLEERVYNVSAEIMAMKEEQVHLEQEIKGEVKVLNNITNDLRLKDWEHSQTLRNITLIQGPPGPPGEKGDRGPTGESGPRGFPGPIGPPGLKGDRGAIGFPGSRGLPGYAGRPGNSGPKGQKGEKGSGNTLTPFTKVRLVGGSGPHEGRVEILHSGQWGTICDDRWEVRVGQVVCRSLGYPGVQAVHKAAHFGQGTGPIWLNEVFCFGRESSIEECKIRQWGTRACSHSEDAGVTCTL

T4: biot-AGE-BSA binding to His9-hMSR1 (Homo sapiens, UniProt P21757)
T4 construct: human MSR1 extracellular domain expressed with a N-terminal nonahistidine tag; purchased R&D Systems 2708-MS
T4 sequence (P21757 77-451 limits assumed): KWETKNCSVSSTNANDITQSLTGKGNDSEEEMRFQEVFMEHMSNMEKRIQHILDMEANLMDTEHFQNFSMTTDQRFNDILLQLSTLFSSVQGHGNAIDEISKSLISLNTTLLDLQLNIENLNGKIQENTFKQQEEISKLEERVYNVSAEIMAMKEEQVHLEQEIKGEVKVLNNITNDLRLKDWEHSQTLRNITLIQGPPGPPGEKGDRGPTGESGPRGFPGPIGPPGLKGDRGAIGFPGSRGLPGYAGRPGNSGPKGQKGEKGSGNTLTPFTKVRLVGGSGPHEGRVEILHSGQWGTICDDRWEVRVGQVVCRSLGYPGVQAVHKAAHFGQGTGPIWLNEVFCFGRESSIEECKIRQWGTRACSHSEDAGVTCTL


Key:
[1] = target: T1, His9-hMSR1; experiment: Cross-competition between anti-MSR1 antibodies (OCTET bio-layer interferometry); assay type: binding; conditions: label = first mAb (mAb-1) on His9-hMSR1 captured with anti-Penta-His Octet biosensors; value = competing mAb-2
Protocol: Binding competition between different anti-MSR1 antibodies was assessed using a real time, label-free bio-layer interferometry assay on an OCTET® HTX biosensor platform (Pall FortéBio Corp., Menlo Park, Calif.). The experiment was performed at 25° C. in 10 mM HEPES, 150 mM NaCl, 3 mM EDTA, 0.05% v/v Surfactant Tween-20, and 1 mg/mL BSA, pH 7.4 (HBS-EBT) buffer with the plate shaking at the speed of 1000 rpm.
To assess whether different antibodies are able to compete with one another for binding to their respective epitopes on the recombinant human MSR1 extracellular domain expressed with a N-terminal nonahistidine tag (SEQ ID NO: 688) (His9-hMSR1; R&D Systems, Cat #2708-MS), around […] of His9-hMSR1 was first captured onto anti-Penta-His antibody coated OCTET® biosensor tips (“Penta-His” disclosed as SEQ ID NO: 690) (Pall FortéBio Corp., #18-5122) by submerging the biosensor tips for 45 seconds into wells containing a […] solution of His9-hMSR1. The antigen-captured biosensor tips were then saturated with a first anti-MSR1 monoclonal antibody (subsequently referred to as “mAb-1”) by immersion into wells containing a […] solution of mAb-1 for 4 minutes. The biosensor tips were then submerged into wells containing a […] solution of a second anti-MSR1 monoclonal antibody (subsequently referred to as “mAb-2”) for 4 minutes. All of the biosensor tips were washed in HBS-EBT buffer in between each step of the experiment. The real-time binding response was monitored during the course of the experiment and the binding response at the end of each step was recorded. […] Table 17 explicitly defines the relationships of antibodies competing in both directions, independent of the order of binding.

[2] = target: T2, Ac-LDL binding to His9-hMSR1; experiment: Competition sandwich ELISA, Ac-LDL; conditions: anti-MSR1 antibody 100 nM, 50 pM Ac-LDL
Protocol: (§1) The ability of anti-MSR1 antibodies disclosed herein to block the binding of various ligands to human MSR1 was measured using three competition sandwich ELISA assays. The ligands used in the assays were: (1) acetylated LDL (Ac-LDL), (2) oxidized LDL (Ox-LDL), and (3) advanced glycation end-products of bovine serum albumin (AGE-BSA).
(§2) Anti-MSR1 antibodies or isotype control antibodies were serially diluted as appropriate for each tested ligand and added in duplicate for each serial dilution set to microtiter plates coated with His9-hMSR1. Buffer alone was also added to wells on each coat. […] This assay was conducted in four different assay runs.
(§3) Data analysis was performed using a sigmoidal dose-response model within Prism™ software (GraphPad). Percent blockade at maximum concentration of the antibody tested in each assay was calculated as an indicator of the ability of the antibodies to block the binding of Ac-LDL, Ox-LDL or biot-AGE-BSA to His9-hMSR1 on the plate relative to the baseline of the assay. In the calculation, binding signal of the same concentrations of Ac-LDL, Ox-LDL, or biot-AGE-BSA used for the assays in the absence of antibody was referenced as 100% binding or 0% blocking, while the baseline of the assay, defined as binding signal of the sample of buffer without MSR1 ligands or antibody, was referenced as 0% binding or 100% blocking. The maximum percent blockade at the highest concentration of antibody tested in each assay are reported for all antibodies.

[3] = target: T3, Ox-LDL binding to His9-hMSR1; experiment: Competition sandwich ELISA, Ox-LDL; conditions: anti-MSR1 antibody 500 nM, Ox-LDL 10 nM
Protocol: as §1, §2, §3

[4] = target: T4, biot-AGE-BSA binding to His9-hMSR1; experiment: Competition sandwich ELISA, biot-AGE-BSA; conditions: anti-MSR1 antibody 300 nM, 400 pM biot-AGE-BSA
Protocol: as §1
For the assay, recombinant monomeric human MSR1 protein comprised of a portion of the human MSR1 extracellular domain expressed with a N-terminal 9-Histidine tag (SEQ ID NO: 688) (His9-hMSR1; R&D Systems, Cat #2708-MS) was coated at a concentration of […] in PBS on a 96-well microtiter plate overnight at 4° C. for use in competition ELISA assays with Ac-LDL, Ox-LDL, or biotinylated-AGE-BSA (“biot-AGE-BSA”). […] Anti-MSR1 antibodies or isotype control antibodies were serially diluted as appropriate for each tested ligand and added in duplicate for each serial dilution set to microtiter plates coated with His9-hMSR1. Buffer alone was also added to wells on each coat. After 1 hour incubation at room temperature, without wash, a final constant concentration of 50 pM Ac-LDL (Life Technologies/ThermoFisher Scientific, Cat #L-35354), 5 nM or 10 nM Ox-LDL (Alfa Aesar, Cat #J65591), or 400 pM biot-AGE-BSA (R&D Systems, Cat #BT4127) were added to plates with His9-hMSR1, and the plates were incubated for an additional 1 hour at room temperature. (Concentrations of Ac-LDL, Ox-LDL and biot-AGE-BSA for antibody inhibition assays were selected from the approximate midway point within the linear portion of individual binding curves of Ac-LDL, Ox-LDL or biot-AGE-BSA to plate-coated His9-hMSR1.) Wells were washed, and plate-bound Ac-LDL or Ox-LDL were detected with anti-LDL rabbit antibody (Alfa Aesar, Cat #J64398) in combination with anti-rabbit IgG (H+L) specific donkey polyclonal antibodies conjugated with horseradish peroxidase (HRP) (JacksonImmunoResearch, Cat #711-035-152) and biot-AGE-BSA was detected with a streptavidin-HRP (ThermoFisher Scientific, Cat #N200). Plates were developed using TMB substrate solution (BD Biosciences, Cat #51-2606KC & Cat #51-2607KC) according to manufacturer's recommendation and absorbance at 450 nm was measured on a Victor™ Multilabel Plate Reader (PerkinElmer™). This assay was conducted in four different assay runs.
as §3, with “antibodies. Negative percent blockade numbers reflected higher MSR1 ligands binding to plate coated His9-hMSR1 in the presence of antibodies.” for “antibodies.”

Molecule	mAb-2 antibodies which Compete with mAb-1 [1]	% Blocking of Ac-LDL binding to His9-hMSR1 [2] [%]	% Blocking of Ox-LDL binding to His9-hMSR1 [3] [%]	% Blocking of biot-AGE-BSA binding to His9-hMSR1 [4] [%]
H1H21227N-N297Q: "modified versions of 21227N (H1H21227N-N297Q and H1H21227N-N297D)"; anti-MSR1 antibody "with a N297Q single point mutation" (antibody, V domains shown) VH: QVQLVQSGAEVKKPGASVKVSCKVSGYTLTELSIHWVRQVPGKGLEWMGGFDPEEGETIFAQEFRDRVTLTEDTSPDTAYMELSSLKSEDAAVYYCTTPRYCNNGICYDYWGQGTLVTVSS VL: DIQMTQSPSSLSASVGDRVTITCRASQSISNYLNWYQQKPGKAPKLLIYTASSLQSGVPSRFSGSGSGTDFTLTISSLQTEDFATYYCQQSYSNFPITFGQGTRLEIKR	Data Inconclusive**	105	97	96
H1H21227N-N297D: "The 21227N antibody was also produced as a third version with a N297D mutation" (antibody, V domains shown) VH: QVQLVQSGAEVKKPGASVKVSCKVSGYTLTELSIHWVRQVPGKGLEWMGGFDPEEGETIFAQEFRDRVTLTEDTSPDTAYMELSSLKSEDAAVYYCTTPRYCNNGICYDYWGQGTLVTVSS VL: DIQMTQSPSSLSASVGDRVTITCRASQSISNYLNWYQQKPGKAPKLLIYTASSLQSGVPSRFSGSGSGTDFTLTISSLQTEDFATYYCQQSYSNFPITFGQGTRLEIKR		101	99	97
H1H21231N: "Three anti-MSR1 antibodies ... (21227N, 21231N, 21234N) were produced with the original human Fcγ portion" (antibody, V domains shown) VH: EVQLVESGGGLVQPGGSLRLSCAASGFTFSDHYMDWVRQAPGKGLEWVGRTRNKANSHTTEYTASVTGRFTISRDDSRNSLYLQMNSLKTEDTAVYYCVRAGIIGTLFDYWGQGTLVTVSS VL: DIQMTQFPSSLSASVGDRVTITCRASQSISSFLNWFQQKPGKAPKFLIYAASSLQSGVPSRFSGSGSGTDFTLTISSLQPEDFATYYCQQSYSSPPITFGQGTRLEIKR		−62	22	−44
H1H21231N-N297Q: modified version of "21231N (H1H21231N-N297Q) anti-MSR1 antibodies" with "a N297Q single point mutation" (antibody, V domains shown) VH: EVQLVESGGGLVQPGGSLRLSCAASGFTFSDHYMDWVRQAPGKGLEWVGRTRNKANSHTTEYTASVTGRFTISRDDSRNSLYLQMNSLKTEDTAVYYCVRAGIIGTLFDYWGQGTLVTVSS VL: DIQMTQFPSSLSASVGDRVTITCRASQSISSFLNWFQQKPGKAPKFLIYAASSLQSGVPSRFSGSGSGTDFTLTISSLQPEDFATYYCQQSYSSPPITFGQGTRLEIKR		−60	26	−50
H1H21227N: "Three anti-MSR1 antibodies ... (21227N, 21231N, 21234N) were produced with the original human Fcγ portion" (antibody, V domains shown) VH: QVQLVQSGAEVKKPGASVKVSCKVSGYTLTELSIHWVRQVPGKGLEWMGGFDPEEGETIFAQEFRDRVTLTEDTSPDTAYMELSSLKSEDAAVYYCTTPRYCNNGICYDYWGQGTLVTVSS VL: DIQMTQSPSSLSASVGDRVTITCRASQSISNYLNWYQQKPGKAPKLLIYTASSLQSGVPSRFSGSGSGTDFTLTISSLQTEDFATYYCQQSYSNFPITFGQGTRLEIKR	Data Inconclusive**	105	100	99

Source: patent US11666658B2, “Rifamycin analogs and antibody-drug conjugates thereof” (Regeneron Pharmaceuticals, Inc., priority 2018, dated 2023)
